B1: ZNF263 (parent)
chain: RTHTGEKPYKCTLCGENFSHRSNL
B2: TBX5 (parent)
chain: YQNHKITQLKIENNPFAKGFRGSD

Variants of: B1
Assay: protein stability index of a GFP-peptide fusion (GPS, HEK-293T) (PSI 1-6); higher = more stable
Conditions: c terminus: a fixed tail appended
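Note: lentivirally expressed fusions sorted by FACS into six bins by GFP to DsRed ratio, PSI derived from sequencing read proportions per bin multiplied by bin number.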

Protein stability index, by site and new letter:
L24: R 1.95, G 2.82, E 2.43, S 2.52, M 1.91, D 2.39, K 2.63, H 2.42, Y 1.78, Q 2.33, P 2.33, W 1.82, T 2.4, F 1.59, C 4, N 2.37, V 2.49, I 2.15, A 2.3
N17: M 1.76, E 2.4, G 2.12, F 2.07, Y 1.91, K 2.26, C 2.25, R 2.09, W 2.42, S 2.02, D 1.7, L 1.98, H 2.15, V 1.92, A 1.99, T 1.6, Q 1.91, P 1.81, I 2.26
S19: M 1.96, I 2.81, L 1.81, E 2.29, K 1.66, T 1.91, Q 2.09, H 1.48, C 2.06, V 2.51, N 2.08, P 1.77, F 2.12, G 1.96, Y 1.97, R 2.01, W 1.74, D 2.21, A 2.21
G15: W 1.84, Y 1.82
S22: W 1.44, N 2.33, P 1.79, D 2.11, V 1.91, M 2, R 2.4, G 2.14, I 1.9, E 2.23, Q 2.01, C 3.19, A 1.83, F 2, L 1.94, Y 1.63, H 2.4, T 1.92, K 2.46
N23: Q 1.91, K 2.17, S 2.05, E 2.31, I 2.32, Y 1.96, D 1.88, G 2.06, T 1.94, R 2.17, L 1.69, F 2.23, W 2.55, V 1.94, M 2.03, A 2.28, P 2.6, H 1.96, C 3.48
R21: P 2.08, Y 1.96, I 1.92, D 3.15, V 1.98, W 1.68, H 2.21, A 2.59, K 2.13, Q 1.94, F 2.01, C 2.46, E 2.69, T 2.11, G 2.3, L 1.64, M 2.22, N 2.19, S 1.96
F18: R 2.15, V 1.88, M 1.82, W 2.07, E 2.22, G 2.29, P 2.19, S 2.37, A 1.86, H 2.76, I 2.17, L 1.96, C 3.74, Y 1.91, D 2.27, K 1.74, Q 2.1, N 2.09, T 1.95
E16: P 1.94, A 1.8, V 2.17, K 1.59, Q 2.46, G 1.68, S 1.99, L 1.5, H 1.87, D 1.93, N 1.77, Y 2.08, R 2.03, C 1.98, W 1.77, T 2.51, F 2.3, I 1.83, M 1.86
H20: I 2.04, T 2.11, C 2.03, G 1.92, F 1.67, S 2.32, Y 2.13, V 1.89, R 1.94, N 1.95, K 1.8, W 2.28, M 1.98, P 1.82, L 2.03, A 2.06, D 1.84, E 2.04, Q 2.26

Variants of: B2
Assay: as above
Conditions: c terminus: a fixed tail appended

Protein stability index of substitutions, site by site:
N3: H 2.29, W 1.89, Y 1.99, V 2.39, D 2.71, G 2.26, M 2.16, C 1.75, Q 2.93, L 2.07, E 3.33, I 1.97, P 2.57, T 2.42, A 1.94, S 2.3, R 2.44, F 2.23, K 2.64
T7: V 2.29, C 1.94, K 3.31, S 2.46, G 2.12, F 1.61, P 2.85, Y 2.37, Q 2.63, R 2.48, W 3.51, E 3.32, A 2.15, N 2.59, H 2.77, I 2.5, M 2.21, D 2.69, L 2.3
Q8: C 1.91, F 1.7, I 2.06, T 2.19, M 2.2, W 1.57, Y 1.57, N 2.4, K 2.28, E 2.97, A 2.79, P 2.41, L 1.41, S 2.13, R 1.99, D 2.75, G 2.73, H 2.41, V 2.49
H4: P 2.58, D 3.52, N 2.87, R 2.77, Q 2.66, G 2.57, E 3.19, F 1.89, W 2.89, M 2.49, A 2.52, I 2.11, Y 2.15, T 2.44, S 2.62, K 2.4, C 1.67, V 2.68, L 3.06
Q2: C 2.54, H 1.46, Y 2.92, N 3.48, G 2.54, L 2.84, P 2.63, T 2.4, D 4.02, F 2.75, E 3.14, S 3.26, W 2.04, R 2.61, V 2.39, K 2.85, A 1.84, I 2.19, M 2.61
I6: H 2.83, F 2.45, C 2.36, S 3.04, R 2.79, Y 2.53, M 2.7, N 3.09, V 2.4, W 4.36, L 2.45, E 3.16, Q 2.98, T 3.06, A 3.47, D 3.53, P 2.8, G 2.3, K 3.27
Y1: C 3.19, R 3.61, L 3.42, E 3.58, K 3.91, A 3.46, S 2.82, M 3.79, F 2.48, G 3.64, W 2.92, H 3.79, I 3.32, N 3.35, Q 3.68, P 3.52, D 3.46, V 3.22, T 3.65
L9: G 2.35, C 2.02, F 2.26, H 2.38, K 2.81, D 3.21, A 2.83, I 2.73, E 3.09
K5: G 2.57, C 2.15, V 2.44, R 2.38, A 2.7, F 1.84, T 2.44, H 2.03, P 2.77, W 2.64, D 3.06, L 2.18, Y 1.95, I 1.51, M 2, E 2.98, S 2.21, N 2.59, Q 2.81
